Test in all cases: activation reporter or marker
Experiment [1] deals with T1, CLSTN1p.L289M peptide on HLA-B*35:01 (human).
T1 peptide: FPNIHMETC

In experiment [2] the target is T2, GPSM2p.D77A peptide on HLA-C*03:03 (human).
T2 peptide: YLHAYAKAL

For experiment [3], the target named is T3, PPP5Cp.E428K peptide on HLA-A*24:02 (human).
T3 peptide: DYIIRSHKV

The target in experiment [4] is T4, PREPp.G384A peptide on HLA-B*35:01 (human).
T4 peptide: FPLDVGSIVAY

The target of experiment [5] is T5, UAP1p.H469Y peptide on HLA-A*02:01 (human).
T5 peptide: ITADVNYNL

The target of experiment [6] is T6, ICKp.P591T peptide on HLA-B*39:01 (human).
T6 peptide: MRTHPGRPFF

Experiment [7] deals with T7, CEBPZp.S100F peptide on HLA-A*24:02 (human).
T7 peptide: KYTKAFLV

Experiment [8] has as its target T8, GALNT2p.L14R peptide on HLA-B*35:01 (human).
T8 peptide: FAFRWVLGIAY

Experiment [9] concerns the target T9, UGGT2p.L880V peptide on HLA-C*12:02 (human).
T9 peptide: FVGPLDEDF

The target of experiment [10] is T10, PDS5Bp.L203V peptide on HLA-A*02:01 (human).
T10 peptide: LLDTVLVNV

The target in experiment [11] is T11, SVILp.E1748D peptide on HLA-A*02:01 (human).
T11 peptide: RQFDITSVSV

For experiment [12], the target named is T12, TENM4p.E1133D peptide on HLA-C*05:01 (human).
T12 peptide: LSDAFVSV

The target in experiment [13] is T13, VPS13Bp.G2602E peptide on HLA-A*02:01 (human).
T13 peptide: FVNLEQHVV

Experiment [14] deals with T14, CLSTN1p.L289M peptide on HLA-C*03:03 (human).
T14 peptide: LAVFPNIHM

For experiment [15], the target named is T15, ICKp.P591T peptide on HLA-C*12:02 (human).
T15 peptide: RTHPGRPFF

B1: TCR691 (TCR, V domains shown)
Valpha: GQSLEQPSEVTAVEGAIVQINCTYQTSGFYGLSWYQQHDGGAPTFLSYNALDGLEETGRFSSFLSRSDSYGYLLLQELQMKDSASYFCAVQAGTALIFGKGTTLSVSS
Vbeta: DTEVTQTPKHLVMGMTNKKSLKCEQHMGHRAMYWYKQKAKKPPELMFVYSYEKLSINESVPSRFSPECPNSSLLNLHLHALQPEDSALYLCASSQPGGGNTEAFFGQGTRLTVV
Regarding B1, the binding result in experiment [1] was “recognises”.

B2: TCR538 (TCR, V domains shown)
Valpha: ILNVEQSPQSLHVQEGDSTNFTCSFPSSNFYALHWYRWETAKSPEALFVMTLNGDEKKKGRISATLNTKEGYSYLYIKGSQPEDSATYLCAFDNYGQNFVFGPGTRLSVLP
Vbeta: DVKVTQSSRYLVKRTGEKVFLECVQDMDHENMFWYRQDPGLGLRLIYFSYDVKMKEKGDIPEGYSVSREKKERFSLILESASTNQTSMYLCASSLTGSFNEQFFGPGTRLTVL
Turning to B2, the binding result in [2] is “recognises”.

B3: TCR536 (TCR, V domains shown)
Valpha: AQSVAQPEDQVNVAEGNPLTVKCTYSVSGNPYLFWYVQYPNRGLQFLLKYITGDNLVKGSYGFEAEFNKSQTSFHLKKPSALVSDSALYFCAVSPLTSGTYKYIFGTGTRLKVLA
Vbeta: SQTIHQWPATLVQPVGSPLSLECTVEGTSNPNLYWYRQAAGRGLQLLFYSVGIGQISSEVPQNLSASRPQDRQFILSSKKLLLSDSGFYLCAWSEGDETQYFGPGTRLLVL
For B3, in experiment [3], the binding result is reported as “recognises”.

B4: TCR692 (TCR, V domains shown)
Valpha: GEDVEQSLFLSVREGDSSVINCTYTDSSSTYLYWYKQEPGAGLQLLTYIFSNMDMKQDQRLTVLLNKKDKHLSLRIADTQTGDSAIYFCAERNGGATNKLIFGTGTLLAVQP
Vbeta: DTEVTQTPKHLVMGMTNKKSLKCEQHMGHRAMYWYKQKAKKPPELMFVYSYEKLSINESVPSRFSPECPNSSLLNLHLHALQPEDSALYLCASSQDRTGAYSPLHFGNGTRLTVT
Regarding B4, the binding result in experiment [4] is “recognises”.

B5: TCR798 (TCR, V domains shown)
Valpha: AQSVTQLDSQVPVFEEAPVELRCNYSSSVSVYLFWYVQYPNQGLQLLLKYLSGSTLVKGINGFEAEFNKSQTSFHLRKPSVHISDTAEYFCAVSYSGSARQLTFGSGTQLTVLP
Vbeta: DAGVIQSPRHEVTEMGQEVTLRCKPISGHNSLFWYRQTMMRGLELLIYFNNNVPIDDSGMPEDRFSAKMPNASFSTLKIQPSEPRDSAVYFCASNPGGRGEKLFFGSGTQLSVL
Consider B5, for which the binding result in experiment [5] is “recognises”.

B6: TCR687 (TCR, V domains shown)
Valpha: AQSVTQLGSHVSVSEGALVLLRCNYSSSVPPYLFWYVQYPNQGLQLLLKYTSAATLVKGINGFEAEFKKSETSFHLTKPSAHMSDAAEYFCAVTDSNYQLIWGAGTKLIIKP
Vbeta: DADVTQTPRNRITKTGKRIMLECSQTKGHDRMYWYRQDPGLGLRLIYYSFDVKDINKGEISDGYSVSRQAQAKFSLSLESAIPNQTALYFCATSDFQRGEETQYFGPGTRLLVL
In the case of B6, the binding result in experiment [6] is on record as “recognises”.

B7: TCR445 (TCR, V domains shown)
Valpha: AQTVTQSQPEMSVQEAETVTLSCTYDTSESDYYLFWYKQPPSRQMILVIRQEAYKQQNATENRFSVNFQKAAKSFSLKISDSQLGDAAMYFCASSRWGGSEKLVFGKGTKLTVNP
Vbeta: DSGVTQTPKHLITATGQRVTLRCSPRSGDLSVYWYQQSLDQGLQFLIQYYNGEERAKGNILERFSAQQFPDLHSELNLSSLELGDSALYFCASSDSRTGGTDTQYFGPGTRLTVL
B7: the binding result in experiment [7] is “recognises”.

B8: TCR802 (TCR, V domains shown)
Valpha: AQSVSQHNHHVILSEAASLELGCNYSYGGTVNLFWYVQYPGQHLQLLLKYFSGDPLVKGIKGFEAEFIKSKFSFNLRKPSVQWSDTAEYFCAVNLLTDSWGKFQFGAGTQVVVTP
Vbeta: EPEVTQTPSHQVTQMGQEVILRCVPISNHLYFYWYRQILGQKVEFLVSFYNNEISEKSEIFDDQFSVERPDGSNFTLKIRSTKLEDSAMYFCATMGSGGNEQFFGPGTRLTVL
B8: the binding result in experiment [8] is reported as “recognises”.

B9: TCR682 (TCR, V domains shown)
Valpha: AQSVTQPDIHITVSEGASLELRCNYSYGATPYLFWYVQSPGQGLQLLLKYFSGDTLVQGIKGFEAEFKRSQSSFNLRKPSVHWSDAAEYFCAVAPDNYGQNFVFGPGTRLSVLP
Vbeta: DAMVIQNPRYQVTQFGKPVTLSCSQTLNHNVMYWYQQKSSQAPKLLFHYYDKDFNNEADTPDNFQSRRPNTSFCFLDIRSPGLGDAAMYLCATYSSGANVLTFGAGSRLTVL
Take B9: the binding result in experiment [9] is “recognises”.

B10: TCR447 (TCR, V domains shown)
Valpha: EDQVTQSPEALRLQEGESSSLNCSYTVSGLRGLFWYRQDPGKGPEFLFTLYSAGEEKEKERLKATLTKKESFLHITAPKPEDSATYLCAVHHLNRDDKIIFGKGTRLHILP
Vbeta: DSGVTQTPKHLITATGQRVTLRCSPRSGDLSVYWYQQSLDQGLQFLIQYYNGEERAKGNILERFSAQQFPDLHSELNLSSLELGDSALYFCASSADLGTREQYFGPGTRLTVT
For B10, in experiment [10], the binding result is given as “recognises”.

B11: TCR441 (TCR, V domains shown)
Valpha: ILNVEQSPQSLHVQEGDSTNFTCSFPSSNFYALHWYRWETAKSPEALFVMTLNGDEKKKGRISATLNTKEGYSYLYIKGSQPEDSATYLCAPSKYNNNDMRFGAGTRLTVKP
Vbeta: DAGITQSPRHKVTETGTPVTLRCHQTENHRYMYWYRQDPGHGLRLIHYSYGVKDTDKGEVSDGYSVSRSKTEDFLLTLESATSSQTSVYFCAISGTEDGELFFGEGSRLTVL
B11: the binding result in experiment [11] is “recognises”.

B12: TCR707 (TCR, V domains shown)
Valpha: QKEVEQNSGPLSVPEGAIASLNCTYSDRGSQSFFWYRQYSGKSPELIMSIYSNGDKEDGRFTAQLNKASQYVSLLIRDSQPSDSATYLCAVNVFNKFYFGSGTKLNVKP
Vbeta: DAGVIQSPRHEVTEMGQEVTLRCKPISGHDYLFWYRQTMMRGLELLIYFNNNVPIDDSGMPEDRFSAKMPNASFSTLKIQPSEPRDSAVYFCASSFLITDTQYFGPGTRLTVL
For B12, the binding result in [12] is recorded as “recognises”.

B13: TCR535 (TCR, V domains shown)
Valpha: AQKVTQAQTEISVVEKEDVTLDCVYETRDTTYYLFWYKQPPSGELVFLIRRNSFDEQNEISGRYSWNFQKSTSSFNFTITASQVVDSAVYFCALSTSMDSNYQLIWGAGTKLIIKP
Vbeta: EPEVTQTPSHQVTQMGQEVILRCVPISNHLYFYWYRQILGQKVEFLVSFYNNEISEKSEIFDDQFSVERPDGSNFTLKIRSTKLEDSAMYFCASSCWDRSTDTQYFGPGTRLTVL
For B13, the binding result in experiment [13] is recorded as “recognises”.

B14: TCR696 (TCR, V domains shown)
Valpha: AQSVTQLDSHVSVSEGTPVLLRCNYSSSYSPSLFWYVQHPNKGLQLLLKYTSAATLVKGINGFEAEFKKSETSFHLTKPSAHMSDAAEYFCVVSAPDTGRRALTFGSGTRLQVQP
Vbeta: GAGVSQSPSNKVTEKGKDVELRCDPISGHTALYWYRQSLGQGLEFLIYFQGNSAPDKSGLPSDRFSAERTGGSVSTLTIQRTQQEDSAVYLCASSSGQGFTDTQYFGPGTRLTVL
Consider B14, for which, in experiment [14], the binding result was “recognises”.

B15: TCR689 (TCR, V domains shown)
Valpha: GIQVEQSPPDLILQEGANSTLRCNFSDSVNNLQWFHQNPWGQLINLFYIPSGTKQNGRLSATTVATERYSLLYISSSQTTDSGVYFCAVVLSYNTDKLIFGTGTRLQVFP
Vbeta: DVKVTQSSRYLVKRTGEKVFLECVQDMDHENMFWYRQDPGLGLRLIYFSYDVKMKEKGDIPEGYSVSREKKERFSLILESASTNQTSMYLCASSLSPPGYLETQYFGPGTRLLVL
Take B15: in experiment [15], the binding result is reported as “recognises”.

The values are drawn from paper PMC9768791 (2022).
